This is an account of results in paper PMC3852656.

Experiment [1] has as its target superfolder Cherry (sfCherry). The experiment can be described thus: crystal structure; sfCherry alone, 2.0 Å, space group P21, eight copies in the asymmetric unit; 0.1 M SPG buffer pH 5.0, 25% PEG 1500.
In experiment [2] the target is superfolder Cherry (sfCherry). The experiment can be described thus: native gel or EMSA; native polyacrylamide gel at ∼10 mg/ml protein concentration. (A gel shift assay detects complexes by their altered migration in electrophoresis.)

As a reminder, the stoichiometry N is a count of units in the complex or per binding partner. On to superfolder Cherry (sfCherry), for which the stoichiometry N in experiment [1] and in experiment [2] was 2 in each case. Moreover, the percent dimer in experiment [2] was determined as 50%.
